Where no end group is shown, it is not given here.
Key:
Assay in all cases: MST; JM labelled with Atto 488, serial dilutions of KD titrated, 25 °C; 20 mM HEPES, 150 mM NaCl, 1 mM TCEP, 0.01% Tween 20, pH 7.5; the text calls the constant of KD^pY1 apparent (Kd,app)
Settings in all cases: both partners purified
[1] = biological target: T1, FGFR2 kinase domain K518I (catalytically inactive, non-phosphorylatable) (UniProt P21802-3 465-764, K518I)
T1 construct: FGFR2 (IIIb isoform) kinase domain, residues 465-764; numbers count on: FGFR2IIIb (C1 isoform, 822 residues); also called KD^K518I; source: E. coli BL21(DE3), purified (Talon, Superdex 75)

[2] = biological target: T2, FGFR2 kinase domain, phosphorylation state pY2 (UniProt P21802-3 465-764, Y467F (worked out from the printed order of phosphorylation) | Y589F (worked …, phosphotyrosine at 657 and 587))
T2 construct: FGFR2 (IIIb isoform) kinase domain, residues 465-764; numbers count on: FGFR2IIIb (C1 isoform, 822 residues); also called KD^pY2; source: E. coli BL21(DE3), purified (Talon, Superdex 75)

[3] = biological target: T3, FGFR2 kinase domain, phosphorylation state pY4 (UniProt P21802-3 465-764, Y658F (worked out from the printed order of phosphorylation) | Y734F (worked …, phosphotyrosine at 657, 587, 467 and 589))
T3 construct: FGFR2 (IIIb isoform) kinase domain, residues 465-764; numbers count on: FGFR2IIIb (C1 isoform, 822 residues); also called KD^pY4; source: E. coli BL21(DE3), purified (Talon, Superdex 75)

[4] = biological target: T4, FGFR2 kinase domain, phosphorylation state pY5 (UniProt P21802-3 465-764, Y734F (worked out from the printed order of phosphorylation), phosphotyrosine at 657, 587, 467, 589 and 658)
T4 construct: FGFR2 (IIIb isoform) kinase domain, residues 465-764; numbers count on: FGFR2IIIb (C1 isoform, 822 residues); also called KD^pY5; source: E. coli BL21(DE3), purified (Talon, Superdex 75)
T4 sequence (P21802 464-763 Y733F): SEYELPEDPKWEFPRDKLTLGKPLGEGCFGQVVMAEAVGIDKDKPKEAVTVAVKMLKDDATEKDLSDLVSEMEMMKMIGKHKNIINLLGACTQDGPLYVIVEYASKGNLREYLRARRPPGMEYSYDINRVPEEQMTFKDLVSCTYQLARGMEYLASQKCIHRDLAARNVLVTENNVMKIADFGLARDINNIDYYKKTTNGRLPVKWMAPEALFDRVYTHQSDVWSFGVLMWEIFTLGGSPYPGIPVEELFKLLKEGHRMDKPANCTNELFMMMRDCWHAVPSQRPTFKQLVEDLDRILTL

T1 sequence (P21802 464-763 K517I): as the sequence (P21802 464-763 Y733F) above, with K54I, F270Y counted along it
T2 sequence (P21802 464-763 Y466F/Y588F/Y657F/Y733F): as the sequence (P21802 464-763 Y733F) above, with Y3F, Y125F, Y194F counted along it
T3 sequence (P21802 464-763 Y657F/Y733F): as the sequence (P21802 464-763 Y733F) above, with Y194F counted along it

Kd [1]: 13.4 ± 0.994 µM | Kd [2]: 6.98 ± 0.877 µM | Kd [3]: 10.2 ± 1.33 µM | Kd [4]: 22.5 ± 1.8 µM
B1: FGFR2 juxtamembrane region (407-462), labelled with Atto 488 (peptide, UniProt P21802-3 407-462, looked up)
chain: KPDFSSQPAVHKLTKRIPLRRQVTVSAESSSSMNSNTPLVRITTRLSSTADTPMLA
modifications: also: labelled with Atto 488
notes: FGFR2 (IIIb isoform) juxtamembrane region, residues 407-462; numbers count on: FGFR2IIIb (C1 isoform, 822 residues); also called JM; 407Juxtamembrane region462; source: synthetic peptide, bought: Genscript

— paper PMC10349056, “The combined action of the intracellular regions regulates FGFR2 kinase activity” (Communications Biology, 2023)
